For the experiment, the target named is largest TIRC7 extracellular domain (T-cell immune response cDNA 7) (human) (UniProt Q13488). As to the kind of experiment: SPR, Biacore T200, 25 C, TIRC7 domain immobilized on CM5 chip, 1:1 kinetic fit.

B1: parent antibody (murine anti-TIRC7 antibody 17-20, cAb1457) (antibody, V domains shown)
VH: QVQLKQSGPELVKPGASVKMSCKASGYTFTTYVMHWVKQKPGQGLEWIGYINPYNDGTNYNEKFKGKATLTSDKSSSTAYMELSTLTSEDSAVYYCAEFITKTVGGSNWYLDVWGAGTTVTVSS
VL: DIVLTQSPAIMSASPGEKVTMTCSASSSISYIHWFQQKPGTSPKRWIYDTSKLPSGVPARFSGSGSGTSYSLTISSMEAEDAATYYCHQRSSYTWTFGGGTKLEIK
In the case of B1, the Kd amounted to 300 pM, the off-rate (koff) amounted to 0.00013 s⁻¹ and the association rate constant (kon) stood at 520000 M⁻¹ s⁻¹.

B2: cAB1467-10.0 (antibody, V domains shown)
VH: QVQLVQSGAEVKKPGASVKVSCKASGYTFTTYVMHWVRQAPGKGLEWMGYINPYNDGTNYNEKFKGRVTLTSDKSTSTAYMELSSLRSEDTAVYYCAEFITKTVGGSNWYLDVWGQGTTVTVSS
VL: DIQLTQSPSFLSASVGDRVTITCSASSSISYIHWFQQKPGKAPKRWIYDTSKLPSGVPSRFSGSGSGTEYTLTISSLQPEDFATYYCHQRSSYTWTFGGGTKLEIK
In turn, B2 returned a kon of 1.24e+06 M⁻¹ s⁻¹.

B3: cAB1468-10.0 (antibody, V domains shown)
VH: QVQLVQSGAEVKKPGASVKVSCKASGYTFTTYVMHWVRQAPGKGLEWMGYINPYNDGTNYNEKFKGRVTLTSDKSTSTAYMELSSLRSEDTAVYYCAEFITKTVGGSNWYLDVWGQGTTVTVSS
VL: EIVLTQSPATLSLSPGERATLSCSASSSISYIHWYQQKPGQAPRRLIYDTSKLPSGIPARFSGSGSGTDFTLTISSLEPEDFAVYYCHQRSSYTWTFGGGTKLEIK
Regarding B3, the kon was 1.13e+06 M⁻¹ s⁻¹.

B4: cAB1459-10.0 (antibody, V domains shown)
VH: QVQLVQSGAEVKKPGASVKVSCKASGYTFTTYVMHWVRQAPGKGLEWMGYINPYNDGTNYNEKFKGRVTMTEDTSTDTAYMELSSLRSEDTAVYYCAEFITKTVGGSNWYLDVWGQGTTVTVSS
VL: DIQLTQSPSFLSASVGDRVTITCSASSSISYIHWFQQKPGKAPKRWIYDTSKLPSGVPSRFSGSGSGTEYTLTISSLQPEDFATYYCHQRSSYTWTFGGGTKLEIK
Molecule B4 had a kon of 3.56e+06 M⁻¹ s⁻¹. Compared with the last molecule, the kon is about 3.2-fold higher.
